From article PMC8325564

Substrate: Nc1nc2c(ncn2[C@@H]2O[C@H](COP(=O)(O)OP(=O)(O)OP(=O)(O)O)[C@@H](O)[C@H]2O)c(=O)[nH]1
Experiment: coupled enzymatic assay of AK3 activity
Format: biochemical, human
Conditions: other: GTP as varied substrate, 300 μM AMP, 2 mM MgCl2

B1: human AK3 (Homo sapiens) (protein)
chain: MGASARLLRAVIMGAPGSGKGTVSSRITTHFELKHLSSGDLLRDNMLRGTEIGVLAKAFIDQGKLIPDDVMTRLALHELKNLTQYSWLLDGFPRTLPQAEALDRAYQIDTVINLNVPFEVIKQRLTARWIHPASGRVYNIEFNPPKTVGIDDLTGEPLIQREDDKPETVIKRLKAYEDQTKPVLEYYQKKGVLETFSGTETNKIWPYVYAFLQTKVPQRSQKASVTP
B1 showed a Km of 10 ± 1.5 µM and a kcat/Km of 5.7e+06 ± 900000 M⁻¹ s⁻¹.
